The values that follow come from PMC6659731.

The data set concerns the target T1, BUD13-2xFLAG (UniProt Q9BRD0 1-619).
T1 sequence: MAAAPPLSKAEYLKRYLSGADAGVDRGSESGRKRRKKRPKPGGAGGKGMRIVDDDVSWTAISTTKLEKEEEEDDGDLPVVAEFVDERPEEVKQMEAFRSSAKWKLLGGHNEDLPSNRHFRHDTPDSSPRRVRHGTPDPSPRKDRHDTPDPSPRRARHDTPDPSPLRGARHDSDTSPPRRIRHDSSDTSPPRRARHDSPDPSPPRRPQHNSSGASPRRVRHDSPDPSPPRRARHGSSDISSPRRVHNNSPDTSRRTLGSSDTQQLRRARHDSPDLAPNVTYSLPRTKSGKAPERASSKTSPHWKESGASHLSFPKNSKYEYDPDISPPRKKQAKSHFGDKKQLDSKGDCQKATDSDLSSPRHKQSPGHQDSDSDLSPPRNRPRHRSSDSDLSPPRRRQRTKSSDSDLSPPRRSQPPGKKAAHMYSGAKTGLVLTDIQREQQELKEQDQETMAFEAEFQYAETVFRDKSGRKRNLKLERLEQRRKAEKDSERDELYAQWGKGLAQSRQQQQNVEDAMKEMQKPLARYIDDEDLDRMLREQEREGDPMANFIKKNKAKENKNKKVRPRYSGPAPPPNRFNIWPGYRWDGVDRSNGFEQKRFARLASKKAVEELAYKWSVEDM
As to the kind of experiment: EMSA.

Regarding UAAAGUGCUUAUAGUGCAGGUAGUGU (ssRNA) [EMSA miR-20a locus RNA oligo], the binding result is given as “no binding”.
